Data reported in paper PMC11544243 (Nature Communications, 2024).
Values belong to the molecule of their own block, whether it stands above or below them.

How the values were obtained:
Assay in all cases: SEC-MALS
Trx-EAT-17F (C. elegans) = Trx-EAT-17F (C. elegans) (UniProt S6F527)
[1] = target: MBP-BICD-1 CTF (C. elegans)
SEC-MALS = target: the molecule itself

- stoichiometry N (BICD-1 CTF per EAT-17F (printed as 2:2)) (Trx-EAT-17F (C. elegans)): 1
- stoichiometry N [1]: 2
Molecule: MBP-BICD-1 CTF (domain or fragment)

B1: Trx-EAT-17F (natural protein, C. elegans, UniProt S6F527-6 1-396, looked up)
chain: MNSDVHRKLEGAYETIRELSSARRDNIMDTGTQVDDTSMIEHIHSLQQELIEAHTRQADSENTLRDAKLRVSELEMANKRLLENEPSEDVAGLQEELISVKMREAESSLALKEMRQRLAELEQHWAKYVHVRAFDPSSASIEKESTSEAHSTQQQPSPPLTSARARLAKITASLIGGSTEETDNCISVRELEDQLMGVRIKEADTLAELKEMRQKVMELETQNHVCTNQLKRQDEEMKRVREDSEVLVKKRKELEDQLKDEKEKLDNKESEFNEGRINDRLKYSEAMQTIQDLQSSISQLELKKAEKWTQNQLRGSSVCDLDEESNSHGSICSNVDHLSLASDEMNALLADMTVRIPTLDDLAEEGSATETDELRPKELNDGNDTTDSGVQLSDSH
- stoichiometry N (SEC-MALS): 2
